Test results published in patent US20250129135A1, “Multi-Agonist and Use Thereof” (priority 2021, published 2025).
Substitutions are numbered along the chain they refer to.

T1: human GIP receptor (human, UniProt P48546 22-466)
T1 sequence (looked up): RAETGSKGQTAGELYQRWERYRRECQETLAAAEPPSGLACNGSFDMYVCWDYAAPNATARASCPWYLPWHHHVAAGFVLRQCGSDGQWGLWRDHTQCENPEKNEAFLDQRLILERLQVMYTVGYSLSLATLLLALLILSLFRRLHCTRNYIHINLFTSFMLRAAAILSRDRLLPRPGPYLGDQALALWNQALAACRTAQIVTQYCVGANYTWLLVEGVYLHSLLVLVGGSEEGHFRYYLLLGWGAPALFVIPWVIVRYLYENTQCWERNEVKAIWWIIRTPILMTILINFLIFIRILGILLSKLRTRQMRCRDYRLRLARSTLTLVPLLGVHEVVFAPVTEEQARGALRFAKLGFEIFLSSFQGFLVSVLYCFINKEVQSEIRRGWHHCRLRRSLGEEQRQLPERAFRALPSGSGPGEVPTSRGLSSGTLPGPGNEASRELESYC

B1: Compound 31 (peptide)
peptide: YXQGTXTSDYSIXLDKKAQXAFIEFLLEXHPSSGAPPXS
modifications: Aib at 2; αMeF(2F) at 6; αMeL at 13; Lys 17 side chain AEEAc-AEEAc-γGlu-CO(CH2)18COOH; Aib at 20; Aib at 29; Ac3c at 38; C-terminal amide (NH2)
B2: Compound 32 (peptide)
peptide: B1 peptide with X13F, F25Y
modifications: Aib at 2; αMeF(2F) at 6; Lys 17 side chain AEEAc-AEEAc-γGlu-CO(CH2)18COOH; Aib at 20; Aib at 29; Ac3c at 38; C-terminal amide (NH2)
B3: Compound 33 (peptide)
peptide: B1 peptide with X29S, G34X, A35H
modifications: Aib at 2; αMeF at 6; αMeL at 13; Lys 17 side chain AEEAc-AEEAc-γGlu-CO(CH2)18COOH; Aib at 20; Aib at 34; Ac3c at 38; C-terminal amide (NH2)
B4: Compound 34 (peptide)
peptide: B1 peptide with F25Y, X29T, H30G, A35Q
modifications: Aib at 2; αMeF(2F) at 6; αMeL at 13; Lys 17 side chain AEEAc-AEEAc-γGlu-CO(CH2)18COOH; Aib at 20; Ac3c at 38; C-terminal amide (NH2)
B5: Compound 35 (peptide)
peptide: B1 peptide with F25Y, X29T, H30G, A35Q
modifications: Aib at 2; αMeF at 6; αMeL at 13; Lys 17 side chain AEEAc-AEEAc-γGlu-CO(CH2)18COOH; Aib at 20; Ac3c at 38; C-terminal amide (NH2)
B6: Compound 36 (peptide)
peptide: YXQGTXTSDYSIXLDKKAQXAFIEFLLEGGPSSXHPPPS
modifications: Aib at 2; αMeF at 6; αMeL at 13; Lys 17 side chain AEEAc-AEEAc-γGlu-CO(CH2)18COOH; Aib at 20; Aib at 34; C-terminal amide (NH2)
B7: Compound 37 (peptide)
peptide: B6 peptide with G30R
modifications: Aib at 2; αMeF at 6; αMeL at 13; Lys 17 side chain AEEAc-AEEAc-γGlu-CO(CH2)18COOH; Aib at 20; Aib at 34; C-terminal amide (NH2)
B8: Compound 39 (peptide)
peptide: B6 peptide with G29T, G30R
modifications: Aib at 2; αMeF(2F) at 6; αMeL at 13; Lys 17 side chain AEEAc-AEEAc-γGlu-CO(CH2)18COOH; Aib at 20; Aib at 34; C-terminal amide (NH2)
B9: Compound 40 (peptide)
peptide: B6 peptide with G29S, G30H, P38X
modifications: Aib at 2; αMeF(2F) at 6; αMeL at 13; Lys 17 side chain AEEAc-AEEAc-γGlu-CO(CH2)18COOH; Aib at 20; Aib at 34; Ac3c at 38; C-terminal amide (NH2)
B10: Compound 41 (peptide)
peptide: B6 peptide with X13L, G29S, G30H, P38X
modifications: Aib at 2; αMeF(2F) at 6; Lys 17 side chain AEEAc-AEEAc-γGlu-CO(CH2)18COOH; Aib at 20; Aib at 34; Ac3c at 38; C-terminal amide (NH2)
B11: Compound 42 (peptide)
peptide: B6 peptide with X13L, G29S, G30H, P38X
modifications: Aib at 2; αMeF at 6; Lys 17 side chain AEEAc-AEEAc-γGlu-CO(CH2)18COOH; Aib at 20; Aib at 34; Ac3c at 38; C-terminal amide (NH2)
B12: Compound 3 (peptide)
peptide: B1 peptide with F25Y, X29S
modifications: Aib at 2; αMeF at 6; αMeL at 13; Lys 17 side chain AEEAc-AEEAc-γGlu-CO(CH2)18COOH; Aib at 20; Ac3c at 38; C-terminal amide (NH2)
B13: Compound 43 (peptide)
peptide: B6 peptide with F25Y, G29S, G30H, P38X
modifications: Aib at 2; αMeF(2F) at 6; αMeL at 13; Lys 17 side chain AEEAc-AEEAc-γGlu-CO(CH2)18COOH; Aib at 20; Aib at 34; Ac3c at 38; C-terminal amide (NH2)
B14: Compound 4 (peptide)
peptide: B1 peptide with X13F, F25Y, X29G, H30G
modifications: Aib at 2; αMeF(2F) at 6; Lys 17 side chain AEEAc-AEEAc-γGlu-CO(CH2)18COOH; Aib at 20; Ac3c at 38; C-terminal amide (NH2)
B15: Compound 5 (peptide)
peptide: B1 peptide with X13F, X29G, H30G
modifications: Aib at 2; αMeF(2F) at 6; Lys 17 side chain AEEAc-AEEAc-γGlu-CO(CH2)18COOH; Aib at 20; Ac3c at 38; C-terminal amide (NH2)
B16: Compound 6 (peptide)
peptide: B1 peptide with Q3H, F25Y, A35Q, X38P
modifications: Aib at 2; αMeF(2F) at 6; αMeL at 13; Lys 17 side chain AEEAc-AEEAc-γGlu-CO(CH2)18COOH; Aib at 20; Aib at 29; C-terminal amide (NH2)
B17: Compound 7 (peptide)
peptide: B6 peptide with F25Y, G29T, X34G, H35X
modifications: Aib at 2; αMeF at 6; αMeL at 13; Lys 17 side chain AEEAc-AEEAc-γGlu-CO(CH2)18COOH; Aib at 20; Aib at 35; C-terminal amide (NH2)
B18: Compound 8 (peptide)
peptide: B6 peptide with F25Y, G29T, X34G, H35Q
modifications: Aib at 2; αMeF at 6; αMeL at 13; Lys 17 side chain AEEAc-AEEAc-γGlu-CO(CH2)18COOH; Aib at 20; C-terminal amide (NH2)
B19: Compound 9 (peptide)
peptide: B1 peptide with X13F, X29T, H30G
modifications: Aib at 2; αMeF(2F) at 6; Lys 17 side chain AEEAc-AEEAc-γGlu-CO(CH2)18COOH; Aib at 20; Ac3c at 38; C-terminal amide (NH2)
B20: Compound 10 (peptide)
peptide: B1 peptide with X13F, X29S
modifications: Aib at 2; αMeF(2F) at 6; Lys 17 side chain AEEAc-AEEAc-γGlu-CO(CH2)18COOH; Aib at 20; Ac3c at 38; C-terminal amide (NH2)
B21: Compound 12 (peptide)
peptide: B6 peptide with X13F, G29T, X34G, H35A
modifications: Aib at 2; αMeF at 6; Lys 17 side chain AEEAc-AEEAc-γGlu-CO(CH2)18COOH; Aib at 20; C-terminal amide (NH2)
B22: Compound 13 (peptide)
peptide: YXQGTXTSDYSIFLDKKAQXAFIEYLLETGPSSGAPPPS
modifications: Aib at 2; αMeF at 6; Lys 17 side chain AEEAc-AEEAc-γGlu-CO(CH2)18COOH; Aib at 20; C-terminal amide (NH2)
B23: Compound 14 (peptide)
peptide: B22 peptide with F13X, Y25F
modifications: Aib at 2; αMeF at 6; αMeL at 13; Lys 17 side chain AEEAc-AEEAc-γGlu-CO(CH2)18COOH; Aib at 20; C-terminal amide (NH2)

Assays:
Experiment in all cases: cell-based or functional assay
[1] = target: human GLP-1 receptor (human, UniProt P43220 24-463)
[2] = target: T1, human GIP receptor
[3] = target: human GCG receptor (human, UniProt P47871 26-477)
Chain of human GCG receptor (P47871 26-477): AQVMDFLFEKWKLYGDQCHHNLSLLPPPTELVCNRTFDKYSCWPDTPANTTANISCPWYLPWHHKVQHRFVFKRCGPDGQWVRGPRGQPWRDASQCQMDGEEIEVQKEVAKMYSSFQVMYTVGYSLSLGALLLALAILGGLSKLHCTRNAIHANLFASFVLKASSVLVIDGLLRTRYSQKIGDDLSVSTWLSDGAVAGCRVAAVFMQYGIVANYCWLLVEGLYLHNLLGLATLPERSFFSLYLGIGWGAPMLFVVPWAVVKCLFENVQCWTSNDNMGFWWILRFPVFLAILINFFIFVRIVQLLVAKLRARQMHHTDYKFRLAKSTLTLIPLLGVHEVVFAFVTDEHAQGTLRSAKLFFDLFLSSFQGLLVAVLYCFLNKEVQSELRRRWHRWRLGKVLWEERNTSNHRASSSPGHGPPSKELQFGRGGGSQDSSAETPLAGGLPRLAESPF

Binder	cAMP EC50, HEK-293 cells stably overexpressing human GLP-1 R [1] [nM]	cAMP Rel. A (%) against human GLP-1 (7-37), human GLP-1 R cells [1] [%]	cAMP Rel. A (%) against human GIP, human GIP R cells [2] [%]	cAMP Rel. A (%) against human GCG, human GCG R cells [3] [%]	cAMP EC50, CHO cells stably overexpressing human GIP R [2] [nM]	cAMP EC50, HEK-293 cells stably overexpressing human GCG R [3] [nM]
B1	0.012	367	2010	211		
B2	0.014	314	1650	335	0.011	0.017
B3	0.019	232	2260	36.8	0.008	0.155
B4	0.023	191	3620	150	0.005	0.038
B5	0.022	200	2260	65.5	0.008	0.087
B6	0.025	176	2590	127		
B7	0.028	157	1210	69.5	0.015	0.082
B8	0.078	56.4	1210	37.2	0.015	0.153
B9	0.016	275	151	34.1	0.12	0.167
B10	0.012	367	248	70.4	0.073	0.081
B11	0.009	489	259	11.5	0.07	0.495
B12		100	754	47.5	0.024	0.12
B13	0.01	440	441	44.9	0.041	0.127
B14		107	318	80.3	0.057	0.071
B15	0.022	200	369	81.4		
B16	0.02	220	1290	98.3	0.014	0.058
B17	0.01	440	1390	98.3	0.013	0.058
B18		152	1510	80.3		0.071
B19	0.017	259	385	91.9		
B20	0.047	93.6	862	75	0.021	0.076
B21	0.014	314	221	13.7		
B22	0.012	367	566	110		
B23	0.01	440	1650	50	0.011	
